The test system of assay [1] is PC-3 prostate cancer cells. Nature of the assay: PC-3 prostate tumor xenograft. The class given is in vivo, SCID mice. The following applies: single injection 10 mg/kg i.p. on day 5. On the procedure: PC-3 prostate cancer cells (2×10^6) were implanted s.c. into SCID mice and allowed to grow until the tumor sizes were approximately 100 mm^3. Tumors were measured bi-weekly with a digital caliper and tumor volumes were calculated as L×W×H. Each group contained 8 animals that were randomized prior to the beginning off the treatments. The results were expressed as mm^3±SEM.
A second prostate cancer model study was conducted in a different tumor model by implanting PC-3 prostate cancer cells. PC-3 cells are also hormone-insensitive but are documented as being slightly more invasive than the DU145 cells. As was described above, the cells were implanted sub-cutaneously in SCID mice and treatments were initiated when the tumors reached a volume of approximately 100 mm^3 (designated day 1). The h16B5 injections were administered i.p. on day 1 at 5 mg/kg and continued twice per week thereafter whereas a single TxT injection at 10 mg/kg was administered i.p. on day 5.

For assay [2], the target named is T1, human clusterin (recombinant monomeric clusterin) (Homo sapiens, UniProt P10909).
T1 construct: Recombinant monomeric clusterin was immobilized on a CM3 chip with normal amine coupling method
Nature of the assay: BIAcore kinetic analysis of antibody binding to immobilized clusterin. The following applies: for KD of the interaction with immobilized human clusterin: stated in words. How it is done:
The purpose of these investigations is to determine the kinetics parameters of anti-clusterin antibodies. In particular, to determine whether the humanization of the 16B5 and 21B12 anti-clusterin monoclonal antibody affects the kinetics parameters of its binding to human clusterin. To this end, a kinetic analysis method was developed using the BIAcore 3000. Human clusterin was immobilized on a sensor chip. Full length antibodies or Fab fragments were injected and allowed to interact with the immobilized clusterin. This example described the exemplary antibody 16B5 but the 21B12 exemplary antibody was prepared and tested in a similar manner.
HBST (10 mM Hepes pH 7.4, 135 mM NaCl, 3.4 mM EDTA, 0.005% Tween 20) was used as running buffer for all BIAcore experiments. Recombinant monomeric clusterin was immobilized on a CM3 chip with normal amine coupling method at a flow of 5 μl/min. Surface was activated with 35 μl of a mixture of 50 mM NHS/0.2M EDC. Clusterin in 10 mM Na-acetate pH 4.5 was injected until a desired amount was captured (below 60RU). Unreacted esters were deactivated with 35 μL1 of 1M ethanolamine hydrochloride-NaOH pH8.5. A control surface was prepared by injecting NHS/EDC and ethanolamine in the same manner.
Kinetics analysis was conducted at a flow of 50 μl/min. Full length antibodies (mouse or humanized) or Fab were diluted in HBST. Concentration range was from 1.953-31.25 nM for the full length antibodies and 15.625-250 nM for the Fab. Each concentration was injected over the clusterin and a control surface for 5 min followed with a 5 min dissociation wash. The clusterin surface was regenerated between each antibody injection with 50 μl of 20 mM HCl.
A general note: In SPR one partner is held on a chip, and binding of the other changes the refractive index at the surface.

Assay [3] deals with EMT6 cells. Put plainly: wound healing (scratch) migration assay. The following applies: 37 C for 15 h. Type of assay: cell-based, mouse. On the procedure:
FIG. 4. h16B5 blocks the migration of cancer cell lines.
To test the activity of anti-clusterin antibodies against cancer cell migration, a standard wound healing, or scratch assay, was used. In this assay, EMT6 cells, a mouse mammary carcinoma cell line, was plated at high density and subjected to wounding by the creation of a scratch in the cell layer. At time 0, a wide denuded area is evident that quickly fills up after incubation of the cells at 37 C for 15 h (see upper left-hand panels in FIG. 4).

T1 sequence (P10909 23-449): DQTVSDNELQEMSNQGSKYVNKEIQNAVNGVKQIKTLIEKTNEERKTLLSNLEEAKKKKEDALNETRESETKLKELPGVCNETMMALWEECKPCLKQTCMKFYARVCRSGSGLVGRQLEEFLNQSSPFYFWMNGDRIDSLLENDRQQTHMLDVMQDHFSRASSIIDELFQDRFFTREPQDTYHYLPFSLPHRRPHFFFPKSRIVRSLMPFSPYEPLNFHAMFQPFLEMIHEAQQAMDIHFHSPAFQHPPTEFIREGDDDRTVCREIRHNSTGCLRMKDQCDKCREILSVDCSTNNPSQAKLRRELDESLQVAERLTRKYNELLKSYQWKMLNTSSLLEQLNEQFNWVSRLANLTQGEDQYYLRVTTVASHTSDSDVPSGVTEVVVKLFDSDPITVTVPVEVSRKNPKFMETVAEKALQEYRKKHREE

On to `CC(=O)O[C@@]12CO[C@@H]1C[C@H](O)[C@@]1(C)C(=O)[C@H](O)C3=C(C)[C@@H](OC(=O)[C@H](O)[C@@H](NC(=O)OC(C)(C)C)c4ccccc4)C[C@@](O)([C@@H](OC(=O)c4ccccc4)[C@H]21)C3(C)C` [TxT, taxotere, reference compound], for which, in assay [1], the “time after injection at which tumors appeared to recover from treatment” value was “approximately 18 days”.

B1: mouse 21B12: parent mouse anti-clusterin monoclonal antibody, VL SEQ ID NO.:33, VH SEQ ID NO.:37 (antibody, V domains shown)
VH: QIQLVQSGPELKKPGETVKISCKASGYTFTNYGMHWVKQAPGKGLKWMGWINTYTGEPTYADDFKGRFAFSLETSASTAYLQINNLKNEDTATYFCARDGFLYFFDYWGQGTTLTVSS
VL: DIVMSQSPSSLAVSVGEKVTMSCKSSQSLLYSSNQKNYLAWYQQRPGQSPKLLIYWASTRESGVPDRFTGSGSGTDFTLTISSVKAEDLAVYYCQQYYIYPRTFGGGTKLEIK
modifications: murine 21B12 VH; murine 21B12 VL
Regarding B1, the “KD of the interaction with immobilized human clusterin” value in assay [2] is recorded as “low nM range”.

B2: HH16B5 Fab: Fab fragment of humanized 16B5 prepared by papain digestion (antibody, V domains shown)
VH: QVQLVQSGAEVKKPGATVKISCKVSGFNIKDIYMHWVQQAPGKGLEWMGRIDPAYGNTKYDPKFQGRVTITADTSTDTAYMELSSLRSEDTAVYYCARRYDTAMDYWGQGTLVTVSS
VL: DIVMTQSPDSLAVSLGERATINCKSSQSLLNSRTRKNYLAWYQQKPGQPPKLLIYWASTRESGVPDRFSGSGSGTDFTLTISSLQAEDVAVYYCKQSYNLWTFGQGTKLEIK
Consider B2, for which the “kinetics parameters compared with the parent mouse antibody” value in assay [2] (full length vs full length, Fab vs Fab) was “slightly better”.

B3: mouse 16B5: parent mouse anti-clusterin monoclonal antibody, VL SEQ ID NO.:25, VH SEQ ID NO.:29 (antibody, V domains shown)
VH: EVQLQQSGAELVKPGASVRLSCTTSGFNIKDIYMHWVKQRPEQGLEWIGRIDPAYGNTKYDPKFQGKATITADTSSNTAYLQLSSLTSEDTAVYYCARRYDTAMDYWGQGTSVTVSS
VL: DIVMSQSPSSLAVSAGEKVTMSCKSSQSLLNSRTRKNYLAWYQQKPGQSPKLLIYWASTRESGVPDRFTGSGSGTDFTLTISSVQAEDLAVYYCKQSYNLWTFGGGTKLEFK
modifications: murine 16B5 VH; murine 16B5 VL
In the case of B3, the “KD of the interaction with immobilized human clusterin” value in assay [2] is given as “low nM range”. Also, the “migration of cells into the denuded area” value in assay [3] is “reduced number of cells in the denuded area”.

The values above are taken from US8802826B2, “Anti-clusterin antibodies and antigen binding fragments and their use to reduce tumor volume” (Alethia Biotherapeutics Inc., priority 2009, dated 2014).
